Data set [1] addresses T1, Csy complex (type I-F, wild type) (Pseudomonas aeruginosa PA14, UniProt Q02ML9;Q02MM0;Q02MM1;Q02MM2 1-434;1-327;1-342;1-187).
T1 sequence 1: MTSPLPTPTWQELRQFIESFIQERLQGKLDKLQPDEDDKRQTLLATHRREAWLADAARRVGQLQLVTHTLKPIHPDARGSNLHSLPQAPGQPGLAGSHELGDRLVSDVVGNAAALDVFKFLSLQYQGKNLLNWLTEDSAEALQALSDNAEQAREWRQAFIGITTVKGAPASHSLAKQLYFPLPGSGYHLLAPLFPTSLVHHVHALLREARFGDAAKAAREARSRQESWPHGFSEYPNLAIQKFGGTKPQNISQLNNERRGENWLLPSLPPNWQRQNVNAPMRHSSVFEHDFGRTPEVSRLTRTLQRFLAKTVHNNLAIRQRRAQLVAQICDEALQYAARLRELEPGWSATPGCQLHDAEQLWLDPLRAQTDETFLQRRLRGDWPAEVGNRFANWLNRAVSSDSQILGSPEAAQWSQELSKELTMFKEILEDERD
T1 sequence 2: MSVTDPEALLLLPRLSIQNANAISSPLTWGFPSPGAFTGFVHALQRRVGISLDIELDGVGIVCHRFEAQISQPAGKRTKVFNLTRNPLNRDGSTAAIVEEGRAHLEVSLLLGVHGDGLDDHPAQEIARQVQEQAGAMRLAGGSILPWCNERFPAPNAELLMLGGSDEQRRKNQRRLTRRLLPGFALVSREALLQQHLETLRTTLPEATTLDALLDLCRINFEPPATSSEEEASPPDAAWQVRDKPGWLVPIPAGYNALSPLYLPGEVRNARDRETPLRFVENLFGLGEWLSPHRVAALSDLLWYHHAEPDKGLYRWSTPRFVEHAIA
T1 sequence 3: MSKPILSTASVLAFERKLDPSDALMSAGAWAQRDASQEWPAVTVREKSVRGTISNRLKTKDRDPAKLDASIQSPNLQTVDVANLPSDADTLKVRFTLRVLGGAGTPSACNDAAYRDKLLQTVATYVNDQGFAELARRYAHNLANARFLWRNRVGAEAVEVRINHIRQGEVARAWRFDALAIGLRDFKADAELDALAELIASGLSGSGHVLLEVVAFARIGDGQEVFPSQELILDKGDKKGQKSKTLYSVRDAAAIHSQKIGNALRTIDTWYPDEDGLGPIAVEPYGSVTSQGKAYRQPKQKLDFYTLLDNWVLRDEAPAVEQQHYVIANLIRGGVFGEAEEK
T1 sequence 4: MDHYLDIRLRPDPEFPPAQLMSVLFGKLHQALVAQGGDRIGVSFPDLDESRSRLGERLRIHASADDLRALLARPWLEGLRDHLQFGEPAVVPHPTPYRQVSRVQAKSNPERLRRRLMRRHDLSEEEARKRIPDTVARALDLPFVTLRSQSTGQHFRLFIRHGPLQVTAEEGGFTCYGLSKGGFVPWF
The data set can be described thus: cryo-EM.

Data set [2] concerns the target T2, Csy complex (type I-F, wild type);Cas1-2/3 complex (Pseudomonas aeruginosa PA14;Pseudomonas …, UniProt Q02ML9;Q02MM0;Q02MM1;Q02MM2;Q02ML7;Q02ML8 1-434;1-327;1-342;1-187;1-324;1-1076, |). Put plainly: EMSA. Background: In EMSA bound probe runs differently from free probe, usually more slowly.
The target in a further data set is T3, Csy complex Cas8f N250A (Pseudomonas aeruginosa PA14, UniProt Q02ML9;Q02MM0;Q02MM1;Q02MM2 1-434;1-327;1-342;1-187, N250A).
T3 sequence 1: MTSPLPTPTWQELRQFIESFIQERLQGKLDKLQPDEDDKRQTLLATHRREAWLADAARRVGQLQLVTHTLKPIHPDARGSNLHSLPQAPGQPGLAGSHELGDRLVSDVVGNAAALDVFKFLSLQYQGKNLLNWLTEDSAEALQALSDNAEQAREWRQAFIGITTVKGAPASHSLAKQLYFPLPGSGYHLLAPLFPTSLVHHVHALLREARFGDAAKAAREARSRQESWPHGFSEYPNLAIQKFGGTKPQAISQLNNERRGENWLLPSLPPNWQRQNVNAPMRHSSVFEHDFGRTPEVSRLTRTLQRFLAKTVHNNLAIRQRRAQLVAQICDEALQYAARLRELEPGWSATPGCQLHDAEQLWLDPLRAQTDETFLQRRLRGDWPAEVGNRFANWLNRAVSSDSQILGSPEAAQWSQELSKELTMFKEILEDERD
T3 sequence 2: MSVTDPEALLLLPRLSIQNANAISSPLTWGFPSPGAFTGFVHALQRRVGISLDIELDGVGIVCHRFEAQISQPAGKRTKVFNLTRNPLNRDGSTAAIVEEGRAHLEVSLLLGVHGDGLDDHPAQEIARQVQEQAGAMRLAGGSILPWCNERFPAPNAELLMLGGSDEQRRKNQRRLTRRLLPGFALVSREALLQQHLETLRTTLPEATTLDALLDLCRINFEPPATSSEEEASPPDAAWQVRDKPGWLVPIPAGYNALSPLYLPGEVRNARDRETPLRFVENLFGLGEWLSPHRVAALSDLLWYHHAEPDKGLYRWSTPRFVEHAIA
T3 sequence 3: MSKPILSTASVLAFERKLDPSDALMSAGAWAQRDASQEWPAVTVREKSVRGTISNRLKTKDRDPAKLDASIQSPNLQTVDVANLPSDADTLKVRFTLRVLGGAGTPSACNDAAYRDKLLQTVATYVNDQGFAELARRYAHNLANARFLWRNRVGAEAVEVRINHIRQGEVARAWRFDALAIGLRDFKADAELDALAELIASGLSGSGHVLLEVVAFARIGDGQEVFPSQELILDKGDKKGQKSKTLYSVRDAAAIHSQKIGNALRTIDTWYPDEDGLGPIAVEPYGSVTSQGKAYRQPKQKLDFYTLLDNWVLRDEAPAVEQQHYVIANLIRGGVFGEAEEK
T3 sequence 4: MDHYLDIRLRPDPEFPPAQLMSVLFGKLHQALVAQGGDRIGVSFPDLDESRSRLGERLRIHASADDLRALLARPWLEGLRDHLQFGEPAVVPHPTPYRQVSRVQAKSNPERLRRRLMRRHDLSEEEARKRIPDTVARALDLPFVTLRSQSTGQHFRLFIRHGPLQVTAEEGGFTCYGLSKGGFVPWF
Put plainly: EMSA.

The target of data set [3] is T2, Csy complex (type I-F, wild …). The data set can be described thus: EMSA. The source holds these as a separate data set.
Data set [4] has as its target T1, Csy complex (type I-F, wild type). Put plainly: EMSA.
Data set [5] concerns the target T4, Csy complex Cas8f RBC mutant (Pseudomonas aeruginosa PA14, UniProt Q02ML9;Q02MM0;Q02MM1;Q02MM2 1-434;1-327;1-342;1-187, R282E;H283D;R299E;R302E).
T4 sequence 1: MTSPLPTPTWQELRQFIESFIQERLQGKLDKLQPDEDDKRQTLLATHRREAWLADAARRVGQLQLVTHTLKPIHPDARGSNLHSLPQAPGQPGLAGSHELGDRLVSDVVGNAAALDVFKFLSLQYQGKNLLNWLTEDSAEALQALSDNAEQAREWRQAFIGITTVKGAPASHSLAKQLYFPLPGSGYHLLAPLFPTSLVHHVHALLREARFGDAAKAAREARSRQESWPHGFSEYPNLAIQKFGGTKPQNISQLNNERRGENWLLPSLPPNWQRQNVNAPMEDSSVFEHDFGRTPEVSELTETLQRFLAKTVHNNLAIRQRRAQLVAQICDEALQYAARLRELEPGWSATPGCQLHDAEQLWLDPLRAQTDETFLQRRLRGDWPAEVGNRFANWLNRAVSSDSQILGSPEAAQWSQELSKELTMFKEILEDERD
T4 sequence 2: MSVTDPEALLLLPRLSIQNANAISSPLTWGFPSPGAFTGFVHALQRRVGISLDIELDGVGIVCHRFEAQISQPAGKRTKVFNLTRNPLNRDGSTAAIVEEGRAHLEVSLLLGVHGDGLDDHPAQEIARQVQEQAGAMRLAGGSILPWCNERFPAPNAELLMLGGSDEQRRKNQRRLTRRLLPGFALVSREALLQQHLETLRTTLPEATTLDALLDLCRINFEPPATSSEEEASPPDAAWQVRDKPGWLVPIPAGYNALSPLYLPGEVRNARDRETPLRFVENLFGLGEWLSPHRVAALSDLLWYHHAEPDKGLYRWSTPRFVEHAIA
T4 sequence 3: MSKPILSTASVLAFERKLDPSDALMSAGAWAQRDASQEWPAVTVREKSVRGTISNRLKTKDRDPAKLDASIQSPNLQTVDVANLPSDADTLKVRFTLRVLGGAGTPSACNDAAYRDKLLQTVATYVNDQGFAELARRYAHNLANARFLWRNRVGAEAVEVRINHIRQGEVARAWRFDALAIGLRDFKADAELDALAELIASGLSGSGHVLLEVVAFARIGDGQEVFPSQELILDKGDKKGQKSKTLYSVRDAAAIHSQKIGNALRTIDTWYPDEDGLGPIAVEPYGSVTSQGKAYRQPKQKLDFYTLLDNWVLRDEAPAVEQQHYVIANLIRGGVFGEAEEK
T4 sequence 4: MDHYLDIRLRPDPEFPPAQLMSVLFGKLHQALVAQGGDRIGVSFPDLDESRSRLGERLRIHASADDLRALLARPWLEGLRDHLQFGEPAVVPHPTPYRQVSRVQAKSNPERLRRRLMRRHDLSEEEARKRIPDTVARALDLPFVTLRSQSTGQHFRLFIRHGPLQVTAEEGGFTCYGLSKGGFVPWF
Put plainly: EMSA.

The data set “cryo-EM structure” concerns the molecule itself. The data set can be described thus: cryo-EM structure.

Read-outs that look alike come from different tables or passages of the source. Some results are limits rather than exact numbers.

T2 sequence (Q02ML7 whole entry, chain 5 of 2): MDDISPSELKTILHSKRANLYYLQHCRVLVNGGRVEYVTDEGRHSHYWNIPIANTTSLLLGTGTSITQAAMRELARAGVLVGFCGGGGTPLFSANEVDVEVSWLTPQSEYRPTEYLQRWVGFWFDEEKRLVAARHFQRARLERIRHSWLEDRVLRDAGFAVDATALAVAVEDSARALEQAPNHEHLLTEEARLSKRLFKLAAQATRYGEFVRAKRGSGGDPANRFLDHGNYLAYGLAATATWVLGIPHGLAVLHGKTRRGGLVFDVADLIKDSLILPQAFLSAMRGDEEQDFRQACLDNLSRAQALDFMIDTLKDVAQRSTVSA
T2 sequence (Q02ML8 whole entry, chain 6 of 2): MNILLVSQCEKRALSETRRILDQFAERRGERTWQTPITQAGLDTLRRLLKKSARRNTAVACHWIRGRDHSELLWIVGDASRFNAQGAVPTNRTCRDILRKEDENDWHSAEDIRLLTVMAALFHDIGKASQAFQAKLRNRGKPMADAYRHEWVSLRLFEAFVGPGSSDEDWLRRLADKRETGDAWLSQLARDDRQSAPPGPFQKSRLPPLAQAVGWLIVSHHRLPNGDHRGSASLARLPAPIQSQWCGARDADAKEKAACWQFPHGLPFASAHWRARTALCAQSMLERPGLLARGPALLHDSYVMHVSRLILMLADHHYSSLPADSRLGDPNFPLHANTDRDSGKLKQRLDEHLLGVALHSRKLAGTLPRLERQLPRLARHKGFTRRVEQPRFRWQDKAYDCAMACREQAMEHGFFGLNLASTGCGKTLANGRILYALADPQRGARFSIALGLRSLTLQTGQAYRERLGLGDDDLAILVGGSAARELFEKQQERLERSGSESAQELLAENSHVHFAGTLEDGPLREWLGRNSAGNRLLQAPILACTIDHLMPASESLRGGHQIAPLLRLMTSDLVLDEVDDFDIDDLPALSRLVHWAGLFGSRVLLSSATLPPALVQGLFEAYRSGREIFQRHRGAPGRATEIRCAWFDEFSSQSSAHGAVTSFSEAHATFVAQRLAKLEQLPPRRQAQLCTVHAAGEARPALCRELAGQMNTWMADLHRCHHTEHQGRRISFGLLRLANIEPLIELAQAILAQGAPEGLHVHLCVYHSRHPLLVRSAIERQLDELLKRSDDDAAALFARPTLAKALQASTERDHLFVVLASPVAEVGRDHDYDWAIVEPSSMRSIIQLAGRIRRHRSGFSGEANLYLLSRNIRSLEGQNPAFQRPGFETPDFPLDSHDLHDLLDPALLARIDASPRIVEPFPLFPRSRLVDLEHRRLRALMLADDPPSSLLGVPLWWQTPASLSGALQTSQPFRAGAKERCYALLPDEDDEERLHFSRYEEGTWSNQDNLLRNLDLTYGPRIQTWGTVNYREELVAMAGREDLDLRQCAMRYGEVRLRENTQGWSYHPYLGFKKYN

B1: 80-bp dsDNA target, GG PAM (dsDNA)
DNA 1: GCTGTACGTCACTATCGAAGCAATACAGGTAGACGCGGACATCAAGCCCGCCGTGAAGGTGCAGCTTCTCTACAGAGTGC
DNA 2: GCACTCTGTAGAGAAGCTGCACCTTCACGGCGGGCTTGATGTCCGCGTCTACCTGTATTGCTTCGATAGTGACGTACAGC
Take B1: the binding result in data set [1] and in data set [2] was “binds” each time. The binding signal with Csy complex Cas8f N250A is > 1000 fold decrease in affinity vs WT.

B2: 80-bp target, AA PAM, bubble +1 to +10 (dsDNA)
DNA 1: GCTGTACGTCACTATCGAAGCAATACAGGTAGACGCGGACATCAAGCCCGCCGTGAAAATGCAGCTTCTCTACAGAGTGC
DNA 2: GCACTCTGTAGAGAAGCTGCATTAAGTGCCGCCGCTTGATGTCCGCGTCTACCTGTATTGCTTCGATAGTGACGTACAGC
For B2, the binding result in data set [3] and in data set [4] was “binds” throughout.

B3: 80-bp target, TT PAM, bubble +1 to +10 (dsDNA)
DNA 1: GCTGTACGTCACTATCGAAGCAATACAGGTAGACGCGGACATCAAGCCCGCCGTGAATTTGCAGCTTCTCTACAGAGTGC
DNA 2: GCACTCTGTAGAGAAGCTGCAAAAAGTGCCGCCGCTTGATGTCCGCGTCTACCTGTATTGCTTCGATAGTGACGTACAGC
As for B3, the binding result in data set [3] and in data set [4] was “binds” in each case.

B4: 80-bp target, GG PAM, bubble +1 to +10 (dsDNA)
DNA 1: GCTGTACGTCACTATCGAAGCAATACAGGTAGACGCGGACATCAAGCCCGCCGTGAAGGTGCAGCTTCTCTACAGAGTGC
DNA 2: GCACTCTGTAGAGAAGCTGCACCAAGTGCCGCCGCTTGATGTCCGCGTCTACCTGTATTGCTTCGATAGTGACGTACAGC
As to B4, the binding result in data set [5] is given as “binds”.

B5: 80-bp target, CC PAM, bubble +1 to +10 (dsDNA)
DNA 1: GCTGTACGTCACTATCGAAGCAATACAGGTAGACGCGGACATCAAGCCCGCCGTGAACCTGCAGCTTCTCTACAGAGTGC
DNA 2: GCACTCTGTAGAGAAGCTGCAGGAAGTGCCGCCGCTTGATGTCCGCGTCTACCTGTATTGCTTCGATAGTGACGTACAGC
As for B5, the binding result in data set [3] and in data set [4] was “binds” throughout.

B6: Cas7f, backbone subunit of the Csy complex (natural protein, Pseudomonas aeruginosa (strain PA14))
chain: MSKPILSTASVLAFERKLDPSDALMSAGAWAQRDASQEWPAVTVREKSVRGTISNRLKTKDRDPAKLDASIQSPNLQTVDVANLPSDADTLKVRFTLRVLGGAGTPSACNDAAYRDKLLQTVATYVNDQGFAELARRYAHNLANARFLWRNRVGAEAVEVRINHIRQGEVARAWRFDALAIGLRDFKADAELDALAELIASGLSGSGHVLLEVVAFARIGDGQEVFPSQELILDKGDKKGQKSKTLYSVRDAAAIHSQKIGNALRTIDTWYPDEDGLGPIAVEPYGSVTSQGKAYRQPKQKLDFYTLLDNWVLRDEAPAVEQQHYVIANLIRGGVFGEAEEK
With B6, in “cryo-EM structure”, the binding result is recorded as “binds”.

These data come from paper PMC6521718 (Molecular cell, 2018).
